Measurements as given in US20150147767A1.

Key:
[1] = biological target: surface of J774 A1 macrophages (BAG3 binding partner not identified) (murine); assay: flow cytometry on J774 A1 cells, negative control
[2] = biological target: FITC-conjugated BAG3 recombinant protein (human) (UniProt O95817); assay: flow cytometry, blocking of 14 nM FITC-rBAG3 binding to J774 A1 cells by 420 nM F(ab′)2; negative control
[3] = biological target: surface of J774 A1 macrophages (BAG3 binding partner not identified) (murine); assay: flow cytometry on J774 A1 cells
[4] = biological target: surface of J774 A1 macrophages (BAG3 binding partner not identified) (murine); assay: flow cytometry on J774 A1 cells, 14 nM FITC-rBAG3
[5] = biological target: surface of J774 A1 macrophages (BAG3 binding partner not identified) (murine); assay: flow cytometry competition on J774 A1 cells; 625 nM peptide, 14 nM FITC-rBAG3 as competitor

UniProt O95817, sequence (O95817 whole entry): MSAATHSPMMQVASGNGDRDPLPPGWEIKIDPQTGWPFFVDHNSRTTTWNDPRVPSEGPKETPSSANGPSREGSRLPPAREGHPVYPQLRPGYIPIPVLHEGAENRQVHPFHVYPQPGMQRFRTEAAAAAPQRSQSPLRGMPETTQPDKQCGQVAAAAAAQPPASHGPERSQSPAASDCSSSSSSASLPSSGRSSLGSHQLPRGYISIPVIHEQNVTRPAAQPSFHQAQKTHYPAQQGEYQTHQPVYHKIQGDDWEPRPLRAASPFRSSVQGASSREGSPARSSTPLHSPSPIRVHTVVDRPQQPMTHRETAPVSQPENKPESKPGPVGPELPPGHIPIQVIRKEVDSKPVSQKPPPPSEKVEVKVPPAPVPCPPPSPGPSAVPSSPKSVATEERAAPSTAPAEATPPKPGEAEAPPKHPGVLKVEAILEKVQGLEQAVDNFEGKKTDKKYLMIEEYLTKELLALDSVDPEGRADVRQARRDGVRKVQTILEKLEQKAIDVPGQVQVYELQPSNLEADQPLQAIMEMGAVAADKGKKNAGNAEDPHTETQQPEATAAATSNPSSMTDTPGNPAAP

Row | Molecule | % inhibition [5] | % of positive cells [5] | other results
1 | FITC-conjugated BSA (albumin from bovine serum) (from UniProt P02769 25-607) |  |  | % of positive cells [1]: 4.04%
2 | F(ab′)2 fragments from mouse IgG (antibody) |  |  | % inhibition [2]: 0%; % of positive cells [2]: 12.3%
3 | FITC-conjugated BAG3 recombinant protein (from UniProt O95817 1-575) |  |  | % of positive cells, FITC-BSA subtracted [3]: 11.1%; % of positive cells [4]: 15.7%
4 | F(ab′)2 fragments from rabbit IgG (antibody) |  |  | % inhibition [2]: 0%; % of positive cells [2]: 14.7%
5 | SSPKSVATEERAAPS [BAG3 peptide 2] | 89.1% | 1.21% | 
6 | DKGKKNAGNAEDPHT [BAG3 peptide 3] | 47.2% | 5.86% | 
7 | NPSSMTDTPGNPAAP [BAG3 peptide 4] | 93.8% | 0.68% | 
8 | DRDPLPPGWEIKIDPQ [BAG3 peptide 1] | 98.4% | 0.18% | 
